Measured values: publication PMC2816692, “Structural and Biochemical Characterization of SrcA, a Multi-Cargo Type III Secretion Chaperone in Salmonella Required for Pathogenic Association with a Host” (PLoS Pathogens, 2010)

Biological target: the molecule itself
Assay: SEC; SrcA alone, 200 µl at 1.1 mg/ml; Superdex S200 10/300GL; 20 mM Tris pH 7.5, 200 mM KCl

B1: His-tagged SrcA (SsrB-regulated chaperone A, STM2138) (natural protein)
chain: MYSRADRLLRQFSLKLNTDSIVFDENRLCSFIIDNRYRILLTSTNSEYIMIYGFCGKPPDNNNLAFEFLNANLWFAENNGPHLCYDNNSQSLLLALNFSLNESSVEKLECEIEVVIRSMENLYHILQDKGITLDTDYT
notes: SrcA (STM2138), type III secretion chaperone of Salmonella enterica serovar Typhimurium; the srcA gene was amplified from chromosomal DNA; STM numbers count on the LT2 genome; Dimer by crystal structure and gel filtration; source: E. coli Rosetta (DE3), purified (nickel-chelating resin, Mono-Q anion exchange); not shown: His6, C-terminal, kept
- stoichiometry N: 2
